B1: unnamed (protein)
chain 1: QVQLQESGPGLVKPSETLSLTCTVSGFSLLSYGVHWVRQPPGKGLEWLGVIWTGGTTNYNSALMSRFTISKDDSKNTVYLKMNSLKTEDTAIYYCARYYYGMDYWGQGTLVTVSS
chain 2: DIQMTQSPSSLSASVGDRVTITCKASQDVRNTVAWYQQKPGKAPKLLIYSSSYRNTGVPDRFSGSGSGTDFTLTISSLQAEDVAVYYCQQHYITPYTFGGGTKVEIK
B2: unnamed (protein)
chain 1: QVQLVQSGAEVKKPGASVKVSCKASGYTFTSHWMHWVRQAPGQGLEWIGEFNPSNGRTNYNEKFKSKATMTVDTSTNTAYMELSSLRSEDTAVYYCASRDYDYDGRYFDYWGQGTLVTVSS
chain 2: DIQMTQSPSSLSASVGDRVTITCSASSSVTYMYWYQQKPGKAPKLLIYDTSNLASGVPSRFSGSGSGTDYTFTISSLQPEDIATYYCQQWSSHIFTFGQGTKVEIK
B3: unnamed (protein)
chain 1: QVQLVQSGAEVKKPGASVKVSCKVSGYTLTELSIHWVRQAPGKGLEWMGGFDPEENEIVYAQRFQGRVTMTEDTSTDTAYMELSSLRSEDTAVYYCAIVGSFSPLTLGLWGQGTMVTVSS
chain 2: QSVLTQPPSVSGAPGQRVTISCTGSGSNIGAPYDVSWYQQLPGTAPKLLIYHNNKRPSGVPDRFSGSKSGTSASLAITGLQAEDEADYYCATVEAGLSGSVFGGGTKLTVL
B4: unnamed (protein)
chain 1: QVTLRESGPALVKPTQTLTLTCTVSGFSLTSYSVHWVRQPPGKGLEWLGVIWASGGTDYNSALMSRLSISKDTSRNQVVLTMTNMDPVDTATYYCARDPPSSLLRLDYWGRGTPVTVSS
chain 2: DIVMTQSPDSLAVSLGERATINCKSSQSLLNSGNQKNYLAWYQQKPGQPPKLLIYGASTRESGVPDRFSGSGSGTDFTLTISSLQAEDVAVYYCQNVHSFPFTFGGGTKLEIK
B5: unnamed (protein)
chain 1: QVQLQQPGAELVEPGGSVKLSCKASGYTFTSHWMHWVKQRPGQGLEWIGEINPSSGRNNYNEKFKSKATLTVDKSSSTAYMQFSSLTSEDSAVYYCVRYYGYDEAMDYWGQGTSVTVSS
chain 2: DIVMTQAAFSNPVTLGTSASISCRSSKSLLHSNGITYLYWYLQKPGQSPQLLIYQMSNLASGVPDRFSSSGSGTDFTLRISRVEAEDVGVYYCAQNLELPYTFGGGTKLEIK
B6: unnamed (protein)
chain 1: EVQLVESGGDLVQPGRSLRLSCAASGFIFSNYGMSWVRQAPGKGLEWVATISSASTYSYYPDSVKGRFTISRDNAKNSLYLQMNSLRVEDTALYYCGRHSDGNFAFGYWGQGTLVTVSS
chain 2: DVLMTQSPLSLPVTPGEPASISCRSSRNIVHINGDTYLEWYLQKPGQSPQLLIYKVSNRFSGVPDRFSGSGSGTDFTLKISRVEAEDVGVYYCFQGSLLPWTFGQGTKVEIK
B7: unnamed (protein)
chain 1: QVTLRESGPALVKPTQTLTLTCTFSGFSLSTAGMSVGWIRQPPGKALEWLADIWWDDKKHYNPSLKDRLTISKDTSKNQVVLKVTNMDPADTATYYCARDMIFNFYFDVWGQGTTVTVSS
chain 2: DIQMTQSPSTLSASVGDRVTITCSASSRVGYMHWYQQKPGKAPKLLIYDTSKLASGVPSRFSGSGSGTEFTLTISSLQPDDFATYYCFQGSGYPFTFGGGTKVEIK
B8: unnamed (protein)
chain 1: EVQLVESGGGLVKPGGSLKLSCAASGFAFSIYDMSWVRQTPEKCLEWVAYISSGGGTTYYPDTVKGRFTISRDNAKNTLYLQMSSLKSEDTAMYYCARHSGYGTHWGVLFAYWGQGTLVTVSA
chain 2: DIQMTQTTSSLSASLGDRVTISCRASQDISNYLNWYQQKPDGTVKLLIYYTSILHSGVPSRFSGSGSGTDYSLTISNLEQEDFATYFCQQGNTLPWTFGCGTKLEI
B9: unnamed (protein)
chain 1: QVQLVQSGAEVKKPGASVKVSCKAFGYPFTDYLLHWVRQAPGQGLEWVGWLNPYSGDTNYAQKFQGRVTMTRDTSISTAYMELSRLRSDDTAVYYCTRTTLISVYFDYWGQGTMVTVSS
chain 2: DIQMTQSPSSVSASVGDRVTIACRASQNIRNILNWYQQRPGKAPQLLIYAASNLQSGVPSRFSGSGSGTDFTLTINSLQPEDFATYYCQQSYSMPRTFGGGTKLEIK
B10: unnamed (protein)
chain 1: EVQLQQSGPDLVKPGASVKISCKASGYSFTGYYMHWVKQSPGKGLEWIGRINPNNGVTLYNQKFKDKATLTVDKSSTTAYMELRSLTSEDSAVYYCARSTMITNYVMDYWGQGTSVTVSS
chain 2: SIVMTQTPTSLLVSAGDRVTITCKASQSVSNDVAWYQQKPGQSPKLLISYTSSRYAGVPDRFSGSGYGTDFTLTISSVQAEDAAVYFCQQDYNSPPTFGGGTKLEIK

Assay: patients with anti-drug antibodies; higher = more immunogenic

Protein | patients with anti-drug antibodies [%]
B1 | 21.2
B2 | 10
B3 | 3.1
B4 | 13
B5 | 0
B6 | 4.2
B7 | 1.5
B8 | 59
B9 | 0.9
B10 | 72.5

— the FLAb antibody collection
